Data: publication PMC9482650, “Quantitative fragmentomics allow affinity mapping of interactomes” (Nature Communications, 2022)

The binders below were run against Inadl_1, Q8NI35 (assay: holdup assay). Conditions: plain residues with an end cap or a label only (N-terminal biotin on a linker: ado-ado).
Chain of Inadl_1, Q8NI35 (Q8NI35 113-229): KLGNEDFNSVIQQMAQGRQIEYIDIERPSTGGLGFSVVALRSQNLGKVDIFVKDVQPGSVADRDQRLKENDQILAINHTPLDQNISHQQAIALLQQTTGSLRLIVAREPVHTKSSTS
Set-up: key: below the threshold = too weak to quantify, mostly under pKd 3.1 to 4
In the case of ALPLPQSSTC [IGF1R, P08069], the pKd is reported as “below the threshold”. In the case of REKKFFCTIL [GNG4, P50150], the pKd is reported as “below the threshold”.

These binders were tested against T1, MPP7, Q5T2T1 (assay: holdup assay). Conditions: plain residues with an end cap or a label only (N-terminal biotin on a linker: ado-ado).
T1 sequence (Q5T2T1 134-230, limits assumed, looked up): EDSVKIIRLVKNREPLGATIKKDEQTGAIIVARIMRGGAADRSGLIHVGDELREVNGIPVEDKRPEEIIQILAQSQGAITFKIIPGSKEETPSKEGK
Set-up: key: below the threshold = too weak to quantify, mostly under pKd 3.1 to 4
With ALPLPQSSTC [IGF1R, P08069] the pKd was “below the threshold”. REKKFFCTIL [GNG4, P50150] showed a pKd of 3.49.

Each binder was assayed against MAST1, Q9Y2H9 (assay: holdup assay). Conditions: plain residues with an end cap or a label only (N-terminal biotin on a linker: ado-ado).
Chain of MAST1, Q9Y2H9 (Q9Y2H9 962-1065): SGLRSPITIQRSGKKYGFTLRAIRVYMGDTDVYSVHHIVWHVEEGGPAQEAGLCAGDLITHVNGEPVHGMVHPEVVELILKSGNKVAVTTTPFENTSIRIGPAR
Set-up: key: below the threshold = too weak to quantify, mostly under pKd 3.1 to 4
In the case of ALPLPQSSTC [IGF1R, P08069], the pKd is reported as “below the threshold”. Work on REKKFFCTIL [GNG4, P50150] yielded a pKd of 5.2.

What follows are binders tested against T2, HTRA3, P83110 (assay: holdup assay). Conditions: plain residues with an end cap or a label only (N-terminal biotin on a linker: ado-ado).
T2 sequence (P83110 354-453, limits assumed, looked up): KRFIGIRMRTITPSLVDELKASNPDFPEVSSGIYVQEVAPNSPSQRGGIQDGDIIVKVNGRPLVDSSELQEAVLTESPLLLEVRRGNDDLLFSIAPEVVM
Set-up: key: below the threshold = too weak to quantify, mostly under pKd 3.1 to 4
In the case of ALPLPQSSTC [IGF1R, P08069], the pKd is reported as 4.24. REKKFFCTIL [GNG4, P50150] gave a pKd of 3.78.

These binders were tested against T3, MPDZ_10, O75970 (assay: holdup assay). Conditions: plain residues with an end cap or a label only (N-terminal biotin on a linker: ado-ado).
T3 sequence (O75970 1624-1722, limits assumed, looked up): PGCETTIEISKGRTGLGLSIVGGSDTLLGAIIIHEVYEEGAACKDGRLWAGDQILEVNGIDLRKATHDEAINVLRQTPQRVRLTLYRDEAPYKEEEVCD
Set-up: key: below the threshold = too weak to quantify, mostly under pKd 3.1 to 4
Work on ALPLPQSSTC [IGF1R, P08069] yielded a pKd of 3.56. REKKFFCTIL [GNG4, P50150] showed a pKd of 4.3.

The binders below were run against T4, PDZD7_3, Q9H5P4 (assay: holdup assay). Conditions: plain residues with an end cap or a label only (N-terminal biotin on a linker: ado-ado).
T4 sequence (Q9H5P4 857-944, limits assumed, looked up): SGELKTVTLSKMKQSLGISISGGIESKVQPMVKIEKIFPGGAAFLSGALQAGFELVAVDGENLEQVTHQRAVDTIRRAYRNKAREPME
Set-up: key: below the threshold = too weak to quantify, mostly under pKd 3.1 to 4
In the case of ALPLPQSSTC [IGF1R, P08069], the pKd is reported as “below the threshold”. In the case of REKKFFCTIL [GNG4, P50150], the pKd is reported as 5.44.

What follows are binders tested against MAGI3_2, Q5TCQ9 (assay: holdup assay). Conditions: plain residues with an end cap or a label only (N-terminal biotin on a linker: ado-ado).
Chain of MAGI3_2, Q5TCQ9 (Q5TCQ9 398-503): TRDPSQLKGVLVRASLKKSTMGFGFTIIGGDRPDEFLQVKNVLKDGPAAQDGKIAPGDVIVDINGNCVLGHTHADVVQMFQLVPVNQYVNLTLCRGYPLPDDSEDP
Set-up: key: below the threshold = too weak to quantify, mostly under pKd 3.1 to 4
With ALPLPQSSTC [IGF1R, P08069] the pKd was “below the threshold”. For REKKFFCTIL [GNG4, P50150], the pKd was 4.87.

What follows are binders tested against T5, SYNJ2BP, P57105 (assay: holdup assay). Conditions: plain residues with an end cap or a label only (N-terminal biotin on a linker: ado-ado).
T5 sequence (P57105 8-110, limits assumed, looked up): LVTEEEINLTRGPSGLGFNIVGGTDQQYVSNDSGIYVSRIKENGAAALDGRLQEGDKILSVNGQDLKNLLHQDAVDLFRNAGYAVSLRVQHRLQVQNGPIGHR
Set-up: key: below the threshold = too weak to quantify, mostly under pKd 3.1 to 4
ALPLPQSSTC [IGF1R, P08069] showed a pKd of 3.67. REKKFFCTIL [GNG4, P50150] showed a pKd of 4.27.

The binders below were run against T6, GRIP1_7, Q9Y3R0 (assay: holdup assay). Conditions: plain residues with an end cap or a label only (N-terminal biotin on a linker: ado-ado).
T6 sequence (Q9Y3R0 999-1096, limits assumed, looked up): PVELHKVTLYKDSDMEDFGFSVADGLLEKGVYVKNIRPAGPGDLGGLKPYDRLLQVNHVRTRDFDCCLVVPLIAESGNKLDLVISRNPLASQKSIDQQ
Set-up: key: below the threshold = too weak to quantify, mostly under pKd 3.1 to 4
For ALPLPQSSTC [IGF1R, P08069], the pKd was “below the threshold”. With REKKFFCTIL [GNG4, P50150] the pKd was “below the threshold”.

These binders were tested against GRID2IP_1, A4D2P6 (assay: holdup assay). Conditions: plain residues with an end cap or a label only (N-terminal biotin on a linker: ado-ado).
Chain of GRID2IP_1, A4D2P6 (A4D2P6 1-87): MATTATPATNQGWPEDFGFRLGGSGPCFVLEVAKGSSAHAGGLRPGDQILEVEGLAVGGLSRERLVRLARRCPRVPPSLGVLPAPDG
Set-up: key: below the threshold = too weak to quantify, mostly under pKd 3.1 to 4
With ALPLPQSSTC [IGF1R, P08069] the pKd was “below the threshold”. REKKFFCTIL [GNG4, P50150] was tested, and the pKd was “below the threshold”.

These binders were tested against T7, APBA1_1, Q02410 (assay: holdup assay). Conditions: plain residues with an end cap or a label only (N-terminal biotin on a linker: ado-ado).
T7 sequence (Q02410 651-752, limits assumed, looked up): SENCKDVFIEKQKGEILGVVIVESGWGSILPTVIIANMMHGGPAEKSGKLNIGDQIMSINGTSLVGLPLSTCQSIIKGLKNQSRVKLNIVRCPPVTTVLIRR
Set-up: key: below the threshold = too weak to quantify, mostly under pKd 3.1 to 4
With ALPLPQSSTC [IGF1R, P08069] the pKd was “below the threshold”. In the case of REKKFFCTIL [GNG4, P50150], the pKd is reported as “below the threshold”.

What follows are binders tested against T8, TX1BP3, O14907 (assay: holdup assay). Conditions: plain residues with an end cap or a label only (N-terminal biotin on a linker: ado-ado).
T8 sequence (O14907 10-122, limits assumed, looked up): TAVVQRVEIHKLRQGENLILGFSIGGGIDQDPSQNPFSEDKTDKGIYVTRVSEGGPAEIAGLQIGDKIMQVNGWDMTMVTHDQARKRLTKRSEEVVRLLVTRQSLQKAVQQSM
Set-up: key: below the threshold = too weak to quantify, mostly under pKd 3.1 to 4
In the case of ALPLPQSSTC [IGF1R, P08069], the pKd is reported as “below the threshold”. For REKKFFCTIL [GNG4, P50150], the pKd was 5.29.

What follows are binders tested against T9, APBA1_2, Q02410 (assay: holdup assay). Conditions: plain residues with an end cap or a label only (N-terminal biotin on a linker: ado-ado).
T9 sequence (Q02410 742-832, limits assumed, looked up): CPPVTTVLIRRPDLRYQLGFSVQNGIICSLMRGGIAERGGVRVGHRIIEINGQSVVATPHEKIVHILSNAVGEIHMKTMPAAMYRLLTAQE
Set-up: key: below the threshold = too weak to quantify, mostly under pKd 3.1 to 4
ALPLPQSSTC [IGF1R, P08069] was tested, and the pKd was “below the threshold”. Work on REKKFFCTIL [GNG4, P50150] yielded a pKd of 4.71.

These binders were tested against NHERF4_4, Q86UT5 (assay: holdup assay). Conditions: plain residues with an end cap or a label only (N-terminal biotin on a linker: ado-ado).
Chain of NHERF4_4, Q86UT5 (Q86UT5 464-550): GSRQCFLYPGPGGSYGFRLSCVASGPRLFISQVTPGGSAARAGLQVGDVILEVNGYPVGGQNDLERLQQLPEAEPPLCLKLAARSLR
Set-up: key: below the threshold = too weak to quantify, mostly under pKd 3.1 to 4
ALPLPQSSTC [IGF1R, P08069] was tested, and the pKd was “below the threshold”. REKKFFCTIL [GNG4, P50150] was tested, and the pKd was 3.76.

These binders were tested against T10, GRIP1_3, Q9Y3R0 (assay: holdup assay). Conditions: plain residues with an end cap or a label only (N-terminal biotin on a linker: ado-ado).
T10 sequence (Q9Y3R0 247-346, limits assumed, looked up): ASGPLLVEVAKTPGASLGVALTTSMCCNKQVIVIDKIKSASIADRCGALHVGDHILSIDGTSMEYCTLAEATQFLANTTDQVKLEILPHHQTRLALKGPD
Set-up: key: below the threshold = too weak to quantify, mostly under pKd 3.1 to 4
In the case of ALPLPQSSTC [IGF1R, P08069], the pKd is reported as “below the threshold”. In the case of REKKFFCTIL [GNG4, P50150], the pKd is reported as “below the threshold”.

Each binder was assayed against DLG2_2, Q15700 (assay: holdup assay). Conditions: plain residues with an end cap or a label only (N-terminal biotin on a linker: ado-ado).
Chain of DLG2_2, Q15700 (Q15700 189-283): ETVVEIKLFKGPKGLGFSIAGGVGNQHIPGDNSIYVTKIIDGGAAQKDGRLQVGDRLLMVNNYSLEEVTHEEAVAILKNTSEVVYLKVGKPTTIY
Set-up: key: below the threshold = too weak to quantify, mostly under pKd 3.1 to 4
In the case of ALPLPQSSTC [IGF1R, P08069], the pKd is reported as “below the threshold”. REKKFFCTIL [GNG4, P50150] gave a pKd of 3.97.

These binders were tested against T11, LNX2_3, Q8N448 (assay: holdup assay). Conditions: plain residues with an end cap or a label only (N-terminal biotin on a linker: ado-ado).
T11 sequence (Q8N448 463-564, limits assumed, looked up): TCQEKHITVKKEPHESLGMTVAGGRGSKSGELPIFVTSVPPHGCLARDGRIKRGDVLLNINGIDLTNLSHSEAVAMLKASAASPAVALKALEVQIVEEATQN
Set-up: key: below the threshold = too weak to quantify, mostly under pKd 3.1 to 4
With ALPLPQSSTC [IGF1R, P08069] the pKd was “below the threshold”. With REKKFFCTIL [GNG4, P50150] the pKd was “below the threshold”.

These binders were tested against T12, SHANK1, Q9Y566 (assay: holdup assay). Conditions: plain residues with an end cap or a label only (N-terminal biotin on a linker: ado-ado).
T12 sequence (Q9Y566 658-767, limits assumed, looked up): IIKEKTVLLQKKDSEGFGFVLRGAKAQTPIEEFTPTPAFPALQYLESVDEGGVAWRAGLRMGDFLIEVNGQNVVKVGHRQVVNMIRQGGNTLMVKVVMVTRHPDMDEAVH
Set-up: key: below the threshold = too weak to quantify, mostly under pKd 3.1 to 4
With ALPLPQSSTC [IGF1R, P08069] the pKd was “below the threshold”. REKKFFCTIL [GNG4, P50150] was tested, and the pKd was 5.21.

Each binder was assayed against PARD3_3, Q8TEW0 (assay: holdup assay). Conditions: plain residues with an end cap or a label only (N-terminal biotin on a linker: ado-ado).
Chain of PARD3_3, Q8TEW0 (Q8TEW0 582-685): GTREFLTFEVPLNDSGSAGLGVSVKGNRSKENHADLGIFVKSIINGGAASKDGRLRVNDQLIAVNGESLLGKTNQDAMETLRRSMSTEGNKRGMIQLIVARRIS
Set-up: key: below the threshold = too weak to quantify, mostly under pKd 3.1 to 4
In the case of ALPLPQSSTC [IGF1R, P08069], the pKd is reported as “below the threshold”. With REKKFFCTIL [GNG4, P50150] the pKd was 4.27.

Each binder was assayed against GRID2IP_2, A4D2P6 (assay: holdup assay). Conditions: plain residues with an end cap or a label only (N-terminal biotin on a linker: ado-ado).
Chain of GRID2IP_2, A4D2P6 (A4D2P6 272-370): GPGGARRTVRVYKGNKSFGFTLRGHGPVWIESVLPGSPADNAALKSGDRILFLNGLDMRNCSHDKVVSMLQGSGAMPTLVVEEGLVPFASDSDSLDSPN
Set-up: key: below the threshold = too weak to quantify, mostly under pKd 3.1 to 4
ALPLPQSSTC [IGF1R, P08069] showed a pKd of 3.99. With REKKFFCTIL [GNG4, P50150] the pKd was 5.07.

What follows are binders tested against GIPC2, Q8TF65 (assay: holdup assay). Conditions: plain residues with an end cap or a label only (N-terminal biotin on a linker: ado-ado).
Chain of GIPC2, Q8TF65 (Q8TF65 112-203): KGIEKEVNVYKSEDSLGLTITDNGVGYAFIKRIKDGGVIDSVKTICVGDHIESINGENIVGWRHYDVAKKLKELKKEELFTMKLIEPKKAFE
Set-up: key: below the threshold = too weak to quantify, mostly under pKd 3.1 to 4
With ALPLPQSSTC [IGF1R, P08069] the pKd was “below the threshold”. With REKKFFCTIL [GNG4, P50150] the pKd was “below the threshold”.

The binders below were run against FRMPD2_1, Q68DX3 (assay: holdup assay). Conditions: plain residues with an end cap or a label only (N-terminal biotin on a linker: ado-ado).
Chain of FRMPD2_1, Q68DX3 (Q68DX3 770-861): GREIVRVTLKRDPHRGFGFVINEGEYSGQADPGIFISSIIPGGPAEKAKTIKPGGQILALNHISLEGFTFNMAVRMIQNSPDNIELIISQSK
Set-up: key: below the threshold = too weak to quantify, mostly under pKd 3.1 to 4
For ALPLPQSSTC [IGF1R, P08069], the pKd was “below the threshold”. In the case of REKKFFCTIL [GNG4, P50150], the pKd is reported as 3.88.

Each binder was assayed against T13, SNTB1, Q13884 (assay: holdup assay). Conditions: plain residues with an end cap or a label only (N-terminal biotin on a linker: ado-ado).
T13 sequence (Q13884 107-205, limits assumed, looked up): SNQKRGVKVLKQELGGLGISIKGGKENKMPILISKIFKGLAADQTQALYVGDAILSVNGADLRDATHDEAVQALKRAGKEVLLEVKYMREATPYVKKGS
Set-up: key: below the threshold = too weak to quantify, mostly under pKd 3.1 to 4
In the case of ALPLPQSSTC [IGF1R, P08069], the pKd is reported as “below the threshold”. REKKFFCTIL [GNG4, P50150] was tested, and the pKd was 4.43.
